Biological target: T1, MLO-Y4 cell surface proteins (Mus musculus, UniProt E9PW83)
T1 construct: endogenous in cells; host or cells: MLO-Y4
T1 sequence (E9PW83 1-1143): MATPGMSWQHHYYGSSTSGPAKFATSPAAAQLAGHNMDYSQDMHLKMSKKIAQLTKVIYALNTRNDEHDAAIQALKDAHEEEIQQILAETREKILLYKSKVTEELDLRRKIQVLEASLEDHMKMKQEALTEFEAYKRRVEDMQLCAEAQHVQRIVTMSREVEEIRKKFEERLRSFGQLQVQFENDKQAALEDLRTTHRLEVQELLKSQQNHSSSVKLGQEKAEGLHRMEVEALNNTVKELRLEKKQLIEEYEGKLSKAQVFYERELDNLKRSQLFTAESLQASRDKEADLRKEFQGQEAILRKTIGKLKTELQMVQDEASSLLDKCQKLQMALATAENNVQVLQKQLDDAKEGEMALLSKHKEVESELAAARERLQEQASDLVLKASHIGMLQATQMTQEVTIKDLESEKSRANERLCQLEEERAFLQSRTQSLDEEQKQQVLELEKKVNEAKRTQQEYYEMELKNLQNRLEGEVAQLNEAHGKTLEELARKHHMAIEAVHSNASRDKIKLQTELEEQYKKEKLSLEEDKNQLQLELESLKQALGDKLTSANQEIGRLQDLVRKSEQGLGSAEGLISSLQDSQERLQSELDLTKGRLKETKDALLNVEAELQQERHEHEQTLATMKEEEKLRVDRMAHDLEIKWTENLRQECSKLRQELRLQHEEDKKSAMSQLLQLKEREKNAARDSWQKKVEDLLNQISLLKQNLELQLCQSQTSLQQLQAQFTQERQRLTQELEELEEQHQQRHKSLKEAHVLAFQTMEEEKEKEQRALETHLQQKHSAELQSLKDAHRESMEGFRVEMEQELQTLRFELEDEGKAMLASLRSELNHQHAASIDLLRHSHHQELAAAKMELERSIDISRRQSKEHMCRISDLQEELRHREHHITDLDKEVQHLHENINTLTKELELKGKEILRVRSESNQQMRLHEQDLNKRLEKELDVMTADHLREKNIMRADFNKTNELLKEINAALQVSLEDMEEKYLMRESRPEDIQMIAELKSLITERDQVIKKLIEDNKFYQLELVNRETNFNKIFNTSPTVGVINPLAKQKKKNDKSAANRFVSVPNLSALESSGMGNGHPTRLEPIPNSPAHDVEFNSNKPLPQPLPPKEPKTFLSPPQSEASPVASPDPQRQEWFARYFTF
Experiment: Crosslinking/co-immunoprecipitation/mass spectrometry (TMT quantitative proteomics) to identify irisin receptors
Type: binding
Conditions: co-precipitated protein Fam184a (E9PW83_MOUSE)
Method in brief: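 Mouse MLO-Y4 cells were switched to serum-free FreeStyle medium for 4 h, chilled, then exposed to 10 nM His-tagged irisin (or adipsin as control) for 20 min. Cells were crosslinked with 1.5 mM DTSSP (30 min, ice), and bound proteins were pulled down on Ni-NTA and eluted with 250 mM imidazole. Eluates were separated by SDS-PAGE, trypsin-digested in gel, TMT 6-plex labelled and quantified by MS3-based LC-MS/MS on an Orbitrap Fusion Lumos.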

B1: irisin: secreted cleaved form of FNDC5; recombinant human/mouse irisin with C-terminal his tag produced in HEK293 cells (protein)
chain: DSPSAPVNVTVRHLKANSAVVSWDVLEDEVVIGFAISQQKKDVRMLRFIQEVNTTTRSCALWDLEEDTEYIVHVQAISIQGQSPASEPVLFKTPREAEKMASKNKDEVTMKE
modifications: left off: small tags and cut ends
notes: secreted cleaved form of FNDC5; recombinant human/mouse irisin with C-terminal his tag produced in HEK293 cells
Question: For B1, which TMT signal-to-noise ratio is on record?
Answer: Its TMT signal-to-noise ratio is 8.102.

Question: What about the “irisin/adipsin TMT signal-to-noise ratio” value of the same molecule?
Answer: Its value is 0.009.

From patent US20210063414A1, “METHODS FOR PREVENTING AND/OR TREATING BONE LOSS CONDITIONS BY MODULATING IRISIN” (Dana-Farber Cancer Institute, Inc., priority 2018, published 2021)
